Biological target: recombinant HSV-2G glycoprotein B (gB) ectodomain (aa 22-724), trimeric (HSV-2 strain G)
Assay: bio-layer interferometry (Octet), dilution series on HSV-2 recombinant gB

B1: HDIT102(H4), fully human IgG1 anti-HSV gB antibody (antibody, V domains shown)
VH: EVQLVQSGAEVKTPGASVRVSCKASGHTFRTFDINWVRQAAGQGLEWMGWMSPNSGNTGYARQFQGRVTMTRNISANTAYMELRGLRFDDTAVYYCARGPGSTGTTGSMDVWGQGTTVTVSS
VL: QAGLTQPPSVSVAPGKTARISCGGNNIGSKSVHWYQQKPGQAPVLVIYYDSDRPSGIPERFSGSNSGNTATLTISRVEAGDEADYYCQVWDSGSVVFGGGTKLTVLG
Kd: < 1 pM
koff: < 1e-07 s⁻¹
kon: 727000 M⁻¹ s⁻¹

From US20260265348A1
